Substitutions are numbered along the chain they refer to. Names may count otherwise.
T1: RagD GTPase as used in the in vitro GTPase assay, Q9NQL2
T1 chain: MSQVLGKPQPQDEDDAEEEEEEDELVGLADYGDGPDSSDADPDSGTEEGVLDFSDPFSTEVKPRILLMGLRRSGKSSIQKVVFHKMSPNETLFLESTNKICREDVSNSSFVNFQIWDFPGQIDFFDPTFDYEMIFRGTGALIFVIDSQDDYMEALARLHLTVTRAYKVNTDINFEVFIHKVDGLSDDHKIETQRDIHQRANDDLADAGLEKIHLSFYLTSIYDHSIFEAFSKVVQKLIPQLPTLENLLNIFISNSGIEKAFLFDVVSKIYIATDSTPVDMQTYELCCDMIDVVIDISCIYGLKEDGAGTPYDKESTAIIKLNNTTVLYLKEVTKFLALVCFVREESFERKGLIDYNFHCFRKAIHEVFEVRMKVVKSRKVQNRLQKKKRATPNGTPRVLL

B1: His-LRS-(759-1176) (protein)
chain: MADAGILRLYTWVEWVKEMVANWDSLRSGPASTFNDRVFASELNAGIIKTDQNYEKMMFKEALKTGFFEFQAAKDKYRELAVEGMHRELVFRFIEVQTLLLAPFCPHLCEHIWTLLGKPDSIMNASWPVAGPVNEVLIHSSQYLMEVTHDLRLRLKNYMMPAKGKKTDKQPLQKPSHCTIYVAKNYPPWQHTTLSVLRKHFEANNGKLPDNKVIASELGSMPELKKYMKKVMPFVAMIKENLEKMGPRILDLQLEFDEKAVLMENIVYLTNSLELEHIEVKFASEAEDKIREDCCPGKPLNVFRIEPGVSVSLVNPQPSNGHFSTKIEIRQGDNCDSIIRRLMKMNRGIKDLSKVKLMRFDDPLLGPRRVPVLGKEYTEKTPISEHAVFNVDLMSKKIHLTENGIRVDIGDTIIYLVH
B2: LRS (759-1176 a.a) fragment R845A (protein)
chain: B1 chain with R87A
B3: LRS (759-1176 a.a) fragment H844A (protein)
chain: B1 chain with H86A

Biological target: T1, RagD GTPase as used in the in vitro …

Protein	GTP hydrolysis by RagD GTPase (in vitro GTPase assay)	GAP activity on RagD (in vitro GTPase assay)
B1	addition of WT LRS fragment (759-1176 a.a) enhanced GTP hydrolysis by RagD GTPase in dose- and time-dependent manner	
B2		H844A and R845A mutants lost their GAP activity while WT LRS showed GAP activity
B3		H844A and R845A mutants lost their GAP activity while WT LRS showed GAP activity

Source: patent US20140249045
